The test system of the series is Sindbis virus TE/5'2J-GFP. As to the kind of experiment: percent infected (GFP+ in RFP+ ISG-expressing cells); higher = more infection (less antiviral activity). The method, then: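 Confirmatory testing of 87 ISGs. Triplicate wells of BHK/HA-Zeo (control) or BHK/NZAP-Zeo (ZAP) cells were transduced with lentiviruses co-expressing a human ISG plus TagRFP, then infected 48 h later with SINV TE/5'2J-GFP (moi 5). The % GFP+ cells among RFP+ cells was measured by flow cytometry at 8 h post infection. Fluc lentivirus served as control. Three independent experiments.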

[1] abbreviates: experiment: confirmatory screen 1, BHK/HA-Zeo (control).
Where [2] appears, read: experiment: confirmatory screen 1, BHK/NZAP-Zeo (ZAP).
The mark [3] stands for this setting: experiment: confirmatory screen 2, BHK/HA-Zeo (control).
Where [4] appears, read: experiment: confirmatory screen 2, BHK/NZAP-Zeo (ZAP).
Setting [5] is: experiment: confirmatory screen 3, BHK/HA-Zeo (control).
The mark [6] stands for this setting: experiment: confirmatory screen 3, BHK/NZAP-Zeo (ZAP).

The values that follow come from the supplement of paper PMC3353916.

± gives the standard deviation of the averaged measurements.
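Note: Interferon-defective BHK-21 derivatives, ZAP line overexpressing the rat ZAP N-terminal zinc finger domain fused to Zeocin resistance, GFP scored within live singlet TagRFP+ cells.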

“MMFRDQVGVLAGWFKGWNECEQTVALLSLLKRVSQTQARFLQLCLEHSLADCAELHVLEREANSPGIINQWQQESKDKVISLLLTHLPLLKPGNLDAKVEYMKLLPKILAHSIEHNQHIEESRQLLSYALIHPATSLEDRSALAMWLNHLEDRTSTSFGGQNRGRSDSVDYGQTHYYHQRQNSDDKLNGWQNSRDSGICINASNWQDKSMGCENGHVPLYSSSSVPTTINTIGTSTSTILSGQAHHSPLKRSVSLTPPMNVPNQPLGHGWMSHEDLRARGPQCLPSDHAPLSPQSSVASSGSGGSEHLEDQTTARNTFQEEGSGMKDVPAWLKSLRLHKYAALFSQMTYEEMMALTECQLEAQNVTKGARHKIVISIQKLKERQNLLKSLERDIIEGGSLRIPLQELHQMILTPIKAYSSPSTTPEARRREPQAPRQPSLMGPESQSPDCKDGAAATGATATPSAGASGGLQPHQLSSCDGELAVAPLPEGDLPGQFTRVMGKVCTQLLVSRPDEENISSYLQLIDKCLIHEAFTETQKKRLLSWKQQVQKLFRSFPRKTLLDISGYRQQRNRGFGQSNSLPTAGSVGGGMGRRNPRQYQIPSRNVPSARLGLLGTSGFVSSNQRNTTATPTIMKQGRQNLWFANPGGSNSMPSRTHSSVQRTRSLPVHTSPQNMLMFQQPEFQLPVTEPDINNRLESLCLSMTEHALGDGVDRTSTI [SAMD4A]”: the percent infected by setting is: under setting [1], 80.4 ± 0.93%; under setting [2], 12.5 ± 0.52%; under setting [3], 92.98 ± 0.71%; under setting [4], 93.39 ± 0.29%; under setting [5], 83.1 ± 1.3%; under setting [6], 84.55 ± 0.77%.
As for “MNMTQARVLVAAVVGLVAVLLYASIHKIEEGHLAVYYRGGALLTSPSGPGYHIMLPFITTFRSVQTTLQTDEVKNVPCGTSGGVMIYIDRIEVVNMLAPYAVFDIVRNYTADYDKTLIFNKIHHELNQFCSAHTLQEVYIELFDQIDENLKQALQKDLNLMAPGLTIQAVRVTKPKIPEAIRRNFELMEAEKTKLLIAAQKQKVVEKEAETERKKAVIEAEKIAQVAKIRFQQKVMEKETEKRISEIEDAAFLAREKAKADAEYYAAHKYATSNKHKLTPEYLELKKYQAIASNSKIYFGSNIPNMFVDSSCALKYSDIRTGRESSLPSKEALEPSGENVIQNKESTG [ERLIN1]”, the percent infected under setting [1] turned out to be 94.6 ± 1.8%; the percent infected under setting [2] was determined as 79.2 ± 1.4%; the percent infected under setting [3] came to 95.84 ± 0.41%; the percent infected under setting [4] came to 94.53 ± 0.57%; the percent infected under setting [5] was 91.74 ± 0.47%; the percent infected under setting [6] stood at 91.63 ± 0.7%.
Consider “MNTIVFNKLSGAVLFEDGGASERERGGRPYSGVLDSPHARPEVGIPDGPPLKDNLGLRHRRTGARQNGGKVRHKRQALQDMARPLKQWLYKHRDNPYPTKTEKILLALGSQMTLVQVSNWFANARRRLKNTVRQPDLSWALRIKLYNKYVQGNAERLSVSSDDSCSEDGENPPRTHMNEGGYNTPVHHPVIKSENSVIKAGVRPESRASEDYVAPPKYKSSLLNRYLNDSLRHVMATNTTMMGKTRQRNHSGSFSSNEFEEELVSPSSSETEGNFVYRTDTLENGSNKGESAANRKGPSKDDTYWKEINAAMALTNLAQGKDKLQGTTSCIIQKSSHIAEVKTVKVPLVQQF [MKX]”, for which the percent infected is 95 ± 2.1% under setting [1]; 82.42 ± 0.67% under setting [2]; 95.17 ± 0.2% under setting [3]; 92.86 ± 0.56% under setting [4]; 79 ± 1.7% under setting [5]; 86.15 ± 0.099% under setting [6].
As for “MNTRNRVVNSGLGASPASRPTRDPQDPSGRQGELSPVEDQREGLEAAPKGPSRESVVHAGQRRTSAYTLIAPNINRRNEIQRIAEQELANLEKWKEQNRAKPVHLVPRRLGGSQSETEVRQKQQLQLMQSKYKQKLKREESVRIKKEAEEAELQKMKAIQREKSNKLEEKKRLQENLRREAFREHQQYKTAEFLSKLNTESPDRSACQSAVCGPQSSTWKLPILPRDHSWARSWAYRDSLKAEENRKLQKMKDEQHQKSELLELKRQQQEQERAKIHQTEHRRVNNAFLDRLQGKSQPGGLEQSGGCWNMNSGNSWGI [EPSTI1]”, the percent infected stood at 96.8 ± 1.1% under setting [1]; 68.2 ± 2.1% under setting [2]; 96.8 ± 1.1% under setting [3]; 95.946 ± 0.041% under setting [4]; 94.88 ± 0.77% under setting [5]; 94.41 ± 0.1% under setting [6].
Turning to “MPGKKARKNAQPSPARAPAELEVECATQLRRFGDKLNFRQKLLNLISKLFCSGT [PMAIP1]”, the percent infected by setting is: under setting [1], 94.9 ± 1.1%; under setting [2], 87.9 ± 2.1%; under setting [3], 95.11 ± 0.24%; under setting [4], 93.22 ± 0.27%; under setting [5], 92.03 ± 0.31%; under setting [6], 92.36 ± 0.16%.
Consider “MPITRMRMRPWLEMQINSNQIPGLIWINKEEMIFQIPWKHAAKHGWDINKDACLFRSWAIHTGRYKAGEKEPDPKTWKANFRCAMNSLPDIEEVKDQSRNKGSSAVRVYRMLPPLTKNQRKERKSKSSRDAKSKAKRKSCGDSSPDTFSDGLSSSTLPDDHSSYTVPGYMQDLEVEQALTPALSPCAVSSTLPDWHIPVEVVPDSTSDLYNFQVSPMPSTSEATTDEDEEGKLPEDIMKLLEQSEWQPTNVDGKGYLLNEPGVQPTSVYGDFSCKEEPEIDSPGGDIGLSLQRVFTDLKNMDATWLDSLLTPVRLPSIQAIPCAP [IRF1]”, for which the percent infected runs as follows: under setting [1], 67.2 ± 42%; under setting [2], 10.7 ± 6.3%; under setting [3], 61.6 ± 1.6%; under setting [4], 1.14 ± 0.73%; under setting [5], 29.2 ± 22%; under setting [6], 0.16 ± 0.079%.
For “MPRQLSAAAALFASLAVILHDGSQMRAKAFPETRDYSQPTAAATVQDIKKPVQQPAKQAPHQTLAARFMDGHITFQTAATVKIPTTTPATTKNTATTSPITYTLVTTQATPNNSHTAPPVTEVTVGPSLAPYSLPPTITPPAHTTGTSSSTVSHTTGNTTQPSNQTTLPATLSIALHKSTTGQKPVQPTHAPGTTAAAHNTTRTAAPASTVPGPTLAPQPSSVKTGIYQVLNGSRLCIKAEMGIQLIVQDKESVFSPRRYFNIDPNATQASGNCGTRKSNLLLNFQGGFVNLTFTKDEESYYISEVGAYLTVSDPETIYQGIKHAVVMFQTAVGHSFKCVSEQSLQLSAHLQVKTTDVQLQAFDFEDDHFGNVDECSSDYTIVLPVIGAIVVGLCLMGMGVYKIRLRCQSSGYQRI [LAMP3]”, the percent infected turned out to be 95.8 ± 1.7% under setting [1]; 52.1 ± 5.6% under setting [2]; 97.55 ± 0.14% under setting [3]; 96.16 ± 0.23% under setting [4]; 86.4 ± 2.6% under setting [5]; 89.93 ± 0.19% under setting [6].
In turn, “MPSLWDRFSSSSTSSSPSSLPRTPTPDRPPRSAWGSATREEGFDRSTSLESSDCESLDSSNSGFGPEEDTAYLDGVSLPDFELLSDPEDEHLCANLMQLLQESLAQARLGSRRPARLLMPSQLVSQVGKELLRLAYSEPCGLRGALLDVCVEQGKSCHSVGQLALDPSLVPTFQLTLVLRLDSRLWPKIQGLFSSANSPFLPGFSQSLTLSTGFRVIKKKLYSSEQLLIEEC [DDIT4]” showed a percent infected under setting [1] of 95.2 ± 1.2%; a percent infected under setting [2] of 76.2 ± 2.5%; a percent infected under setting [3] of 96.4 ± 0.11%; a percent infected under setting [4] of 94.99 ± 0.17%; a percent infected under setting [5] of 94.1 ± 0.29%; a percent infected under setting [6] of 92.99 ± 0.24%.
Consider “MPVERMRMRPWLEEQINSNTIPGLKWLNKEKKIFQIPWMHAARHGWDVEKDAPLFRNWAIHTGKHQPGVDKPDPKTWKANFRCAMNSLPDIEEVKDKSIKKGNNAFRVYRMLPLSERPSKKGKKPKTEKEDKVKHIKQEPVESSLGLSNGVSDLSPEYAVLTSTIKNEVDSTVNIIVVGQSHLDSNIENQEIVTNPPDICQVVEVTTESDEQPVSMSELYPLQISPVSSYAESETTDSVPSDEESAEGRPHWRKRNIEGKQYLSNMGTRGSYLLPGMASFVTSNKPDLQVTIKEESNPVPYNSSWPPFQDLPLSSSMTPASSSSRPDRETRASVIKKTSDITQARVKSC [IRF2]”, for which the percent infected reads like this: under setting [1], 81 ± 3.7%; under setting [2], 2.58 ± 0.4%; under setting [3], 94.34 ± 0.74%; under setting [4], 60.4 ± 1.6%; under setting [5], 89.4 ± 1.2%; under setting [6], 39.2 ± 2.8%.
